Measurements from patent US20210371484A1 (SYLUS, published 2021).

T1: Soluble mouse EPOR chimera protein (mouse, UniProt P14753 25-249)
T1 construct: Bought reagent (R&D Systems), amine-coupled to a carboxymethylated dextran SPR chip; it says only 'soluble' and 'chimera'; also called Receptor mouse EPOR chimera protein; erythropoietin receptor
T1 sequence (looked up): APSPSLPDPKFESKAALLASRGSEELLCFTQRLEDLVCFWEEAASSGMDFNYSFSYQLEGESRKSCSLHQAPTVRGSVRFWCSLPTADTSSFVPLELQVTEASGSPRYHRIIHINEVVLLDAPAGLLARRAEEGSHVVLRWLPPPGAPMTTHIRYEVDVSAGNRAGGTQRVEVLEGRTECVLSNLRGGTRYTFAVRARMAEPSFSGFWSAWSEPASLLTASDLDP

B1: SY-2 (peptide)
peptide: LQLHVLKAVSGLRTLTMIRRALG
notes: Synthetic 23-mer made as a monomer by solid phase synthesis; also called erythropoietin-induced peptide
B2: SY-3 (peptide)
peptide: LQLHVLKAVAGLRTLTMIRRALA
notes: as for B1
B3: SY-1 (peptide)
peptide: LQLHVLKAVSGLRTLTTLLRALG
notes: Synthetic 23-mer made as a monomer by solid phase synthesis; No terminal protecting group is stated for the peptide as tested; also called erythropoietin-induced peptide

Molecular target: T1, Soluble mouse EPOR chimera protein
Experiment: SPR (Reichert SR 7500C), mouse EPOR chimera amine-coupled on chip, peptide flowed at 5, 2.5 and 1.25 uM
Description: Specifically, the real-time SPR analysis was performed using Reichert SPR Biosensor SR 7500C equipment (Reichert Inc., NY, USA). Receptor mouse EPOR chimera protein (Soluble mouse EPOR chimera protein)(R&D Systems, Minneapolis, Minn., USA) was covalently bonded to a chip (BR-1005-39, Pharmacia Biosensor AB) coated with carboxy methylated dextran matrix by an amine coupling procedure using an amine coupling kit (BR-1000-50, GE Healthcare, USA) according to the manufacturer's manual. Peptides having concentrations of 5, 2.5 and 1.25 μM according to the present disclosure and scrambled peptides were tested by flowing at a flow rate of 5 μl/minute. In addition, the experiment was independently repeated to increase the accuracy. In addition, DMSO was flowed at 5 μl/minute to normalize the signal. After sufficiently inducing the binding of the peptide of an aspect to the receptor, regeneration was induced by injecting 20 μl/minute of 25 mM acetic acid into a sensor chip.

Kd [µM] | Binder
1550 | B1
2160 | B2
1410 | B3
